Consider 6 molecules from patent publication US20250250593A1, “METHOD FOR PREPARING ALPHA-BRANCHED BETA'-HYDROXY CARBONYL COMPOUNDS BY ENZYMATIC-CATALYZED REDUCTIVE ALDOL REACTION” (Max-Planck-Gesellschaft zur Förderung der Wissenschaften …, priority 2022, published 2025).

Series [1] concerns KsCcr. Briefly: HPLC analysis of reaction products: 2-HMB-CoA formed over total products from crotonyl-CoA and formaldehyde. It counts as biochemical, Kitasatospora setae. The conditions noted are these: for Ratio of 2-HMB-CoA formed over total products: triplicates, mean ± standard deviation, values given as %. The source says: KsCcr wild-type (WT) natively promotes the NADPH-dependent reductive carboxylation of crotonyl-CoA into ethylmalonyl-CoA. […] Under these conditions, neither ethylmalonyl-CoA (carboxylation product) nor butyryl-CoA (reduction side product) were detected with LC-MS (see Table 2 further below). […] The compound was isolated and its structure was further verified using 2-dimensional NMR and high-resolution MS experiments. […] The newly introduced carbon was also observed in the ^13C-NMR experiment, confirming formation of aldol product 2-HMB-CoA by KsCcr.
The reaction was diluted 10 times into 5% methanol/Buffer 8.1 and analyzed by HPLC over an Agilent Eclipse Plus C18, 3.5 μm 100 Å, 100×2.1 mm, […] column using 5% to 30% acetonitrile gradient over 7.5 min with 25 mM ammonium formate pH=8.1 as the aqueous phase.

The test system of series [2] is KsCcr. Put plainly: Reductive aldol reaction with longer chain aldehydes (acetaldehyde, propionaldehyde): product share and diastereomeric ratio by LC-MS. It counts as biochemical, Kitasatospora setae. As to the method:
The reaction catalyzed by KsCcr generates an (S)-configured stereocenter at the α-position of the reaction product. When using higher substituted aldehydes, a second stereocenter would be generated at the β-position, which would be highly interesting for synthetic organic applications. It was first tested, whether KsCcr would accept longer chain aldehydes. Indeed, in the presence of 500 mM acetaldehyde, the enzyme formed 35% of 2-ethyl-3-hydroxybutyryl-CoA (2-EHB-CoA) over total products, with substantial amounts of butyryl-CoA as a side product. To improve yield, an acyl-CoA oxidase was used to continually recycle the side product butyryl-CoA back into the substrate crotonyl-CoA. With this proof-reading strategy the yield of the reaction could be increased up to 72%. High resolution mass spectrometry together with ^1H^−1H COSY and ^13C-NMR experiments confirmed the structure of 2-EHB-CoA.
To determine the stereochemistry at the β-position the reaction was analyzed by LC-MS and compared the retention times to chemically synthesized (2S,3R)-EHB-CoA and (2S,3S)-EHB-CoA standards.
Determination of CoA esters was performed using a HRES-LC-MS. The chromatographic separation was performed on an Thermo Scientific Vanquish HPLC System using a Kinetex Evo C18 column ([…], 100 Å, 1.7 μm, Phenomenexc) equipped with a 20×2.1 mm guard column of similar specificity at a constant eluent flow rate of 0.3 mL/min and a column temperature of 40° C. with eluent A being 50 mM ammonium formate pH=8.1 and eluent B being MeOH (Honeywell) The injection volume was 1 μl. […]

B1: KsCcr variant His365Asn: KsCcr active site variant His365Asn, SEQ ID NO: 19 (protein)
chain: MQEILDAILSGDAASADYAALALPESYRAVTLHKGEERMFDGLASRDKDPRKSLHLDDVPLPELGPGEALVAVMASSVNYNTVWSSIFEPVSTFGFLERYGRLSPLTARHDLPYHVLGSDLAGVVLRTGAGVNAWKPGDEVVAHCLSVELESPDGHNDTMMDPEQRIWGFETNFGGLAQLALVKTNQLLPKPKHLTWEEAASPGLVNSTAYRQLVSRNGAGLKQGDNVLIWGASGGLGSYATQYALAGGATPICVVSSPRKADICRAMGAEAIIDRSAEGYRFWKDEHHQDPREWKRLGGKIREFTGGEDVDIVFEHPGRETFGASVYVTRKGGTIVTCASTSGYMHQYDNRYLWMSLKRIVGSNFANYREAFEANRLVAKGKIHPTLSKVYALEETGQAALDVHHNKHQGKVGVLCLAPREGLGVTDPELRSKHLTKINAFRNV
modifications: KsCcr variant His365Asn
As for B1, the “Ratio of 2-HMB-CoA formed over total products” value (from here on “Ratio of 2-HMB-CoA formed”) in the series on KsCcr [1] (5 mM formaldehyde) was 42 ± 1; with KsCcr [1] (75 mM formaldehyde) it was 89 ± 0. Moreover, the “2-HMB-CoA produced (reductive aldol product)” value in the series with KsCcr [1] (75 mM formaldehyde) is given as 89%.

B2: KsCcr variant Glu171Ala: KsCcr variant Glu171Ala, SEQ ID NO: 24 (protein)
chain: MQEILDAILSGDAASADYAALALPESYRAVTLHKGEERMFDGLASRDKDPRKSLHLDDVPLPELGPGEALVAVMASSVNYNTVWSSIFEPVSTFGFLERYGRLSPLTARHDLPYHVLGSDLAGVVLRTGAGVNAWKPGDEVVAHCLSVELESPDGHNDTMMDPEQRIWGFATNFGGLAQLALVKTNQLLPKPKHLTWEEAASPGLVNSTAYRQLVSRNGAGLKQGDNVLIWGASGGLGSYATQYALAGGATPICVVSSPRKADICRAMGAEAIIDRSAEGYRFWKDEHHQDPREWKRLGGKIREFTGGEDVDIVFEHPGRETFGASVYVTRKGGTIVTCASTSGYMHQYDNRYLWMSLKRIVGSHFANYREAFEANRLVAKGKIHPTLSKVYALEETGQAALDVHHNKHQGKVGVLCLAPREGLGVTDPELRSKHLTKINAFRNV
modifications: KsCcr variant Glu171Ala
With B2, the “Ratio of 2-HMB-CoA formed” value in the series on KsCcr [1] (5 mM formaldehyde) is 43 ± 0; with KsCcr [1] (75 mM formaldehyde), 89 ± 0.

B3: KsCcr variant Ser119Ala: KsCcr variant Ser119Ala, SEQ ID NO: 22 (protein)
chain: MQEILDAILSGDAASADYAALALPESYRAVTLHKGEERMFDGLASRDKDPRKSLHLDDVPLPELGPGEALVAVMASSVNYNTVWSSIFEPVSTFGFLERYGRLSPLTARHDLPYHVLGADLAGVVLRTGAGVNAWKPGDEVVAHCLSVELESPDGHNDTMMDPEQRIWGFETNFGGLAQLALVKTNQLLPKPKHLTWEEAASPGLVNSTAYRQLVSRNGAGLKQGDNVLIWGASGGLGSYATQYALAGGATPICVVSSPRKADICRAMGAEAIIDRSAEGYRFWKDEHHQDPREWKRLGGKIREFTGGEDVDIVFEHPGRETFGASVYVTRKGGTIVTCASTSGYMHQYDNRYLWMSLKRIVGSHFANYREAFEANRLVAKGKIHPTLSKVYALEETGQAALDVHHNKHQGKVGVLCLAPREGLGVTDPELRSKHLTKINAFRNV
modifications: KsCcr variant Ser119Ala
B3: the “Ratio of 2-HMB-CoA formed” value in the series on KsCcr [1] (5 mM formaldehyde) is listed as 37 ± 3. Further, in the series with KsCcr [1] (75 mM formaldehyde), the “2-HMB-CoA produced (reductive aldol product)” value was 83% and the “Ratio of 2-HMB-CoA formed” value amounted to 83 ± 0.

B4: KsCcr variant Thr82Asp: KsCcr variant Thr82Asp, SEQ ID NO: 21 (protein)
chain: MQEILDAILSGDAASADYAALALPESYRAVTLHKGEERMFDGLASRDKDPRKSLHLDDVPLPELGPGEALVAVMASSVNYNDVWSSIFEPVSTFGFLERYGRLSPLTARHDLPYHVLGSDLAGVVLRTGAGVNAWKPGDEVVAHCLSVELESPDGHNDTMMDPEQRIWGFETNFGGLAQLALVKTNQLLPKPKHLTWEEAASPGLVNSTAYRQLVSRNGAGLKQGDNVLIWGASGGLGSYATQYALAGGATPICVVSSPRKADICRAMGAEAIIDRSAEGYRFWKDEHHQDPREWKRLGGKIREFTGGEDVDIVFEHPGRETFGASVYVTRKGGTIVTCASTSGYMHQYDNRYLWMSLKRIVGSHFANYREAFEANRLVAKGKIHPTLSKVYALEETGQAALDVHHNKHQGKVGVLCLAPREGLGVTDPELRSKHLTKINAFRNV
modifications: KsCcr variant Thr82Asp
B4: the “Ratio of 2-HMB-CoA formed” value in the series on KsCcr [1] (5 mM formaldehyde) is recorded as 14 ± 1; in the series with KsCcr [1] (75 mM formaldehyde) it was 57 ± 1. Besides, the “2-HMB-CoA produced (reductive aldol product)” value in the series on KsCcr [1] (75 mM formaldehyde) came to 57%.

B5: KsCcr variant Asn81Asp: KsCcr active site variant Asn81Asp, no SEQ ID given (protein)
chain: MQEILDAILSGDAASADYAALALPESYRAVTLHKGEERMFDGLASRDKDPRKSLHLDDVPLPELGPGEALVAVMASSVNYDTVWSSIFEPVSTFGFLERYGRLSPLTARHDLPYHVLGSDLAGVVLRTGAGVNAWKPGDEVVAHCLSVELESPDGHNDTMMDPEQRIWGFETNFGGLAQLALVKTNQLLPKPKHLTWEEAASPGLVNSTAYRQLVSRNGAGLKQGDNVLIWGASGGLGSYATQYALAGGATPICVVSSPRKADICRAMGAEAIIDRSAEGYRFWKDEHHQDPREWKRLGGKIREFTGGEDVDIVFEHPGRETFGASVYVTRKGGTIVTCASTSGYMHQYDNRYLWMSLKRIVGSHFANYREAFEANRLVAKGKIHPTLSKVYALEETGQAALDVHHNKHQGKVGVLCLAPREGLGVTDPELRSKHLTKINAFRNV
Consider B5, for which the entries for the “Ratio of 2-HMB-CoA formed” value with KsCcr [1] (5 mM formaldehyde) and in the series on KsCcr [1] (75 mM formaldehyde) were 1 ± 0 and 11 ± 0, respectively.

B6: KsCcr WT: wild type crotonyl-CoA carboxylase/reductase obtained from Kitasatospora setae, SEQ ID NO: 1 (protein)
chain: MQEILDAILSGDAASADYAALALPESYRAVTLHKGEERMFDGLASRDKDPRKSLHLDDVPLPELGPGEALVAVMASSVNYNTVWSSIFEPVSTFGFLERYGRLSPLTARHDLPYHVLGSDLAGVVLRTGAGVNAWKPGDEVVAHCLSVELESPDGHNDTMMDPEQRIWGFETNFGGLAQLALVKTNQLLPKPKHLTWEEAASPGLVNSTAYRQLVSRNGAGLKQGDNVLIWGASGGLGSYATQYALAGGATPICVVSSPRKADICRAMGAEAIIDRSAEGYRFWKDEHHQDPREWKRLGGKIREFTGGEDVDIVFEHPGRETFGASVYVTRKGGTIVTCASTSGYMHQYDNRYLWMSLKRIVGSHFANYREAFEANRLVAKGKIHPTLSKVYALEETGQAALDVHHNKHQGKVGVLCLAPREGLGVTDPELRSKHLTKINAFRNV
modifications: Kitasatospora setae KsCCR crotonyl-CoA carboxylase/reductase
For B6, the “Ratio of 2-HMB-CoA formed” value in the series with KsCcr [1] (5 mM formaldehyde) is listed as 72 ± 1±; in the series with KsCcr [1] (75 mM formaldehyde) it was 96 ± 0. Moreover, in the series on KsCcr [1] (ambient conditions, CO2 not strictly avoided), the aldol product generated was over 95%. In addition, the “yield of the reaction (2-EHB-CoA)” value with KsCcr [2] (500 mM acetaldehyde with acyl-CoA oxidase recycling butyryl-CoA to crotonyl-CoA (proof-reading)) is “up to 72%”. For the same molecule, in the series with KsCcr [2] (500 mM acetaldehyde, butyryl-CoA as side product), the “2-ethyl-3-hydroxybutyryl-CoA (2-EHB-CoA) over total products” value came out at 35%. Besides, the conversion with propionaldehyde entry in the series with KsCcr [2] (compared with formaldehyde or acetaldehyde, product detected by MS) is reported as “strongly decreased”.
